Legend:
Type in all cases: biochemical, uncultured organism
[1] = substrate: O=C1Nc2ccccc2C1=O; test: amidohydrolase activity, Michaelis-Menten or Hill fit; conditions: metal-dependent amidohydrolase activity
Excerpt: amidohydrolase activity, Michaelis-Menten or Hill fit on MGS0169

[2] = substrate: CC(=O)Oc1ccc([N+](=O)[O-])cc1; test: spectrophotometric ester hydrolysis, Michaelis-Menten or Hill fit; conditions: metal-dependent; 0.1 mM MnCl2 stated for the Figure 4 and 7 assays
Excerpt: (§1) spectrophotometric ester hydrolysis, Michaelis-Menten or Hill fit on MGS0169

[3] = substrate: CC(=O)Oc1cccc2ccccc12; test: as above; conditions: metal-dependent; 0.1 mM MnCl2 stated for the Figure 4 and 7 assays
Excerpt: as §1

[4] = substrate: CCC(=O)Oc1cccc2ccccc12; test: as above; conditions: metal-dependent; 0.1 mM MnCl2 stated for the Figure 4 and 7 assays
Excerpt: as §1

B1: MGS0169 (uncultured organism) (protein)
chain: MAHAEGPALHPHEKLNNWGKWGDDDQRGAANYITPERIVAAARLIQTGKTFSLAIPIDSNGPVFPPRLPPHHTMEITGADYVADPGASPFGKSPIRFADDYIYMPLQGSTQWDALSHGWYGESLYNGVPEAAIRSSGAGGATKLGIENVKTSFLGRGVLVDIVRFKGGSLPEGYTITRADLEGALAKQKSKLLPGDILVIRTGLVESWYDLDPVGRASFFLNPMTGIGSDTVPWIHEQRLAGVAADNIALERVPHERAPELALPVHGNLLRDLGVYIGEIWWLEELAKDCAQDGRYEFFLAAQPLYIPGAVGSPLNPIAVK
notes: N-terminal 6His tag (modified pET15b), E. coli BL21(DE3), Ni-NTA purified; predicted 37 kDa, tetramer; crystal construct 21-341 aa
Km [1]: 19700 ± 4200 µM
kcat [1]: 1.9 ± 0.2 s⁻¹
kcat/Km [1]: 100 M⁻¹ s⁻¹
Km [2]: 400 ± 290 µM
kcat [2]: 71.2 ± 1.7 s⁻¹
kcat/Km [2]: 180000 M⁻¹ s⁻¹
Km [3]: 490 ± 110 µM
kcat [3]: 14.9 ± 1.2 s⁻¹
kcat/Km [3]: 30000 M⁻¹ s⁻¹
Km [4]: 420 ± 120 µM
kcat [4]: 14.7 ± 1.4 s⁻¹
kcat/Km [4]: 40000 M⁻¹ s⁻¹
